Assay results: paper PMC5062937, “Aadh2p: an Arxula adeninivorans alcohol dehydrogenase involved in the first step of the 1-butanol degradation pathway” (Microbial Cell Factories, 2016)

What was measured:
Assay in all cases: purified protein
Type in all cases: biochemical, Blastobotrys adeninivorans
[1] = test system: T1, NC(=O)C1=CN([C@@H]2O[C@H](COP(=O)(O)OP(=O)(O)OC[C@H]3O[C@@H](n4cnc5c(N)ncnc54)[C@H](O)[C@@H]3O)[C@@H](O)[C@H]2O)C=CC1; details: reduction, 20 mM acetaldehyde, 50 mM sodium phosphate pH 7.5, 30 °C, pH 7.5, varied: cofactor
T1 construct: full length, N-terminal His6 tag (MHHHHHH then VPSPDI), expressed in A. adeninivorans G1212/YIC102-6H-AADH2, Ni-NTA purified; ORF 1068 bp, 356 residues printed; native 88 kDa, dimer

CC=O = test system: T2, CC=O; details: reduction, 0.8 mM NADH, 50 mM sodium phosphate pH 7.5, 30 °C, pH 7.5
T2 construct: full length, N-terminal His6 tag (MHHHHHH then VPSPDI), expressed in A. adeninivorans G1212/YIC102-6H-AADH2, Ni-NTA purified; ORF 1068 bp, 356 residues printed; native 88 kDa, dimer

CCCC=O = test system: T3, CCCC=O; details: reduction, 0.4 mM NADH, 50 mM sodium phosphate pH 7.5, 30 °C, pH 7.5
T3 construct: full length, N-terminal His6 tag (MHHHHHH then VPSPDI), expressed in A. adeninivorans G1212/YIC102-6H-AADH2, Ni-NTA purified; ORF 1068 bp, 356 residues printed; native 88 kDa, dimer

[2] = test system: T4, NC(=O)c1ccc[n+]([C@@H]2O[C@H](COP(=O)(O)OP(=O)(O)OC[C@H]3O[C@@H](n4cnc5c(N)ncnc54)[C@H](O)[C@@H]3O)[C@@H](O)[C@H]2O)c1; details: oxidation, 100 mM ethanol, 50 mM Tris-HCl pH 9.0, 30 °C, pH 9.0, varied: cofactor
T4 construct: full length, N-terminal His6 tag (MHHHHHH then VPSPDI), expressed in A. adeninivorans G1212/YIC102-6H-AADH2, Ni-NTA purified; ORF 1068 bp, 356 residues printed; native 88 kDa, dimer

CCCCO = test system: T5, CCCCO; details: oxidation, 1 mM NAD+, 50 mM Tris-HCl pH 9.0, 30 °C, pH 9.0
T5 construct: full length, N-terminal His6 tag (MHHHHHH then VPSPDI), expressed in A. adeninivorans G1212/YIC102-6H-AADH2, Ni-NTA purified; ORF 1068 bp, 356 residues printed; native 88 kDa, dimer

With 6h-Aadh2p (Blastobotrys adeninivorans) the Km [1] was 70 µM, the kcat [1] was 14.7 s⁻¹ and the kcat/Km [1] was 224000 M⁻¹ s⁻¹. The Km (CC=O) was 26500 µM, the kcat (CC=O) was 15.2 s⁻¹ and the kcat/Km (CC=O) was 600 M⁻¹ s⁻¹. The Km (CCCC=O) was 500 µM, the kcat (CCCC=O) was 11900 s⁻¹ and the kcat/Km (CCCC=O) was 2.37e+07 M⁻¹ s⁻¹. It also gave a Km [2] of 500 µM, a kcat [2] of 2.2 s⁻¹ and a kcat/Km [2] of 4000 M⁻¹ s⁻¹. For the same substance, the Km (CCCCO) was 300 µM, the kcat (CCCCO) was 1310 s⁻¹ and the kcat/Km (CCCCO) was 4.37e+06 M⁻¹ s⁻¹.
